According to patent US20250101134A1, “ANAPLASTIC LYMPHOMA KINASE ANTIBODIES AND METHODS OF USE THEREOF” (The Children's Hospital of Philadelphia, priority 2022, published 2025):

What was measured:
[1] = biological target: cell surface ALK on neuroblastoma cells (IMR32, SY5Y-D3, SY5Y) (human) (UniProt Q9UM73); experiment: cell-based or functional assay
[2] = biological target: T1, ALK extracellular domain expressed on the cell surface of 293T cells (293T-ALK) (Homo sapiens, UniProt Q9UM73); experiment: cell-based or functional assay
[3] = tested on: 293T cells; experiment: Flow cytometry binding of VHs to 293T cells (non-specific binding); conditions: VH at 1 μM, anti-FLAG-PE detection
Procedure: (§1) FIG. 1A provides a schematic of ALK. MAM1, LDLa, MAM2, G-rich, G-T domains and full-length ALK extracellular domain (ALK-Ecto) were expressed separately for phage panning. Briefly, 293T and 293T-ALK cells were stained with different VH antibodies at a concentration of 1 μM in […] PBS for 30 minutes on ice. The cells were washed with 1 mL PBS three times and incubated with anti-FLAG-PE antibody (1:200, BioLegend) for 30 minutes on ice. The FLAG tag comprises the sequence: DYKDDDDK (SEQ ID NO: 9). The stained cells were then washed with 1 mL PBS three times. Antibody binding was detected on a BD™ LSR II (BD Biosciences, San Jose, CA). Fluorescence activated cell sorting (FACS) data analysis was performed using FlowJo_V10_CL.
(§2) FIGS. 1B and 1C show the flow cytometry results with various VHs binding to ALK extracellular domain expressed on the cell surface of 293T cells (293T-ALK). VH9 and VH20 were identified with the G-rich domain antigen while VH5 and VH78 were identified with the G-T domain antigen.

[4] = Aggregation by dynamic light scattering (DLS); format: physicochemical; conditions: 5 mg/mL in PBS, 37° C., day 0 to day 14
Procedure: The 4 VHs were studied by dynamic light scattering (DLS). Briefly, VH antibodies were buffer changed with PBS and filtered with a […] filter.
Antibody concentration was adjusted to 5 mg/mL. 500 μL samples were incubated at 37° C. for DLS. Samples were measured at day 0, day 1, day 4, day 7, and day 14 on Zetasizer Nano-ZS ZEN 3600 (Malvern Instruments Limited; Malvern, UK) to determine the size distributions of protein particles.

[5] = Size exclusion chromatography (SEC); format: physicochemical; conditions: Superdex 200 Increase 10/300 GL, DPBS
Procedure: VH20 was also studied by size exclusion chromatography (SEC). 200 μL (1 μg/mL) filtered samples were used for analysis. A Superdex® 200 Increase 10/300 GL column (GE Healthcare, Cat. No. 28990944) was used for the SEC. The column was calibrated with protein molecular mass standards of ferritin (440 kDa), aldolase (158 kDa), conalbumin (75 kDa), ovalbumin (44 kDa), carbonic anhydrase (29 kDa), and ribonuclease A (13.7 kDa). Protein was eluted by Dulbecco's phosphate-buffered saline (DPBS) buffer at a flow rate of 0.5 mL/minute.
Size exclusion chromatography (SEC) was also performed to characterize VH20-OKT3-Fc BiTE. Briefly, 200 μL (1 μg/mL) filtered samples were used for analysis. Superdex® 200 Increase 10/300 GL columns (GE Healthcare, Cat. No. 28990944) were used. The column was calibrated with protein molecular mass standards of ferritin (440 kDa), aldolase (158 kDa), conalbumin (75 kDa), ovalbumin (44 kDa), carbonic anhydrase (29 kDa), and ribonuclease A (13.7 kDa). Protein was eluted by DPBS buffer at a flow rate of 0.5 mL/minute.

[6] = tested on: 293T-ALK cells; experiment: Internalization of pHrodo Deep Red labelled VH20, 293T-ALK; format: cell-based; conditions: pHrodo Deep Red conjugated VH20, 24 hours, flow cytometer
Procedure: (§3) VH20 internalization was also characterized. For the internalization studies, VH20 was conjugated with pHrodo™ Deep Red dye using the pHrodo™ Deep Red Antibody Labeling Kit (Thermo). The conjugated VH20 was incubated with 293T and 293T-ALK cells for 24 hours at different concentrations. VH20 internalization was measured by a flow cytometer.

[7] = biological target: T1, ALK extracellular domain expressed on the cell surface of 293T cells (293T-ALK); experiment: Flow cytometry binding of VHs to 293T-ALK cells; design: expressed in transfected cells; host or cells: 293T; conditions: VH at 1 μM, anti-FLAG-PE detection
Procedure: as §1, §2

[8] = tested on: SK-N-AS cells; experiment: FACS binding to SK-N-AS cells (negative cell line); conditions: 1 μM
Procedure: (§4) The ability of VH20 bind ALK expressing cells was also studied by FACS. SK-N-AS (negative cell line), IMR32 (positive cell line), SY5Y-D3 (positive cell line) cells were stained with VH20 at a concentration of 1 μM in 200 μL PBS for 30 minutes on ice. The cells were washed with 1 mL PBS three times and incubated with anti-Flag-PE antibody (1:200, BioLegend) for 30 minutes on ice. The cells were again washed with 1 mL PBS three times. Antibody binding was detected on a BD™ LSR II (San Jose, CA). FACS data analysis was performed using FlowJo_V10_CL.

[9] = biological target: T2, ALK-Fc, a fusion of the ALK extracellular domain and human IgG1 Fc (human, UniProt Q9UM73 19-1038); experiment: ELISA, ALK-Fc coated, anti-Flag-HRP detection
T2 construct: not shown: human IgG1 Fc
Procedure: The VHs were further characterized. First, the binding affinities of the VHs were studied in an ELISA assay using a fusion protein comprising the ALK extracellular domain fused to the human IgG1 Fc (ALK-Fc). ELISA plates (Corning 3690; Tewksbury, MA) were coated with 50 μl antigen (5 μg/ml diluted with 1×PBS) at 4° C. overnight. The next day, blocking was performed with 150 μL 5% milk-PBS (Bio-RAD; Hercules, CA) at room temperature for two hours. Then, the plates were washed with 0.05% PBST three times. 3-fold serial diluted VH antibodies (in 5% PBS-Milk) was added into each well and incubated at room temperature for 1 hour and then washed with PBST 4 times. Next, 50 μL anti-Flag-HRP (1:1000 dilution in 5% PBS-Milk, Thermo; Waltham, MA) was added into each well and incubated at room temperature for 1 hour and then washed 5 times with PBST. 50 μL 3,3′,5,5′-tetramethylbenzidine (TMB) substrate (Sigma; St. Louis, MO) was added into each well and color was allowed to develop for 1-2 minutes before stopping with 50 μL H₂SO₄ (1M, Sigma). Plates were read at 450 nm absorbance. The ELISA results were analyzed using GraphPad Prism 9.0.2.

[10] = tested on: cell surface ALK on SY5Y-D3 cells; experiment: FACS binding to SY5Y-D3 cells; conditions: 1 μM, positive cell line
Procedure: as §4

[11] = tested on: ALK; experiment: BLItz competition with KTN0239-IgG for ALK; format: binding; conditions: Protein A biosensor, KTN0239-IgG loaded, then ALK, then VH20
Excerpt: The ability of VH20 to compete with KTN0239 was also studied. KTN0239 is a humanized variant of KTN0125 (Sano et al. (2016) Cancer Res., 76(14 Suppl):Abstract2690) and can bind the G rich domain of ALK. A Protein A biosensor (18-5010, BLItz® system, ForteBio; Freemont, CA) was used to immobilization KTN0239-IgG. DPBS (pH=7.4) was used for the baseline and determine dissociation. The detection conditions used were (I) baseline 30 seconds; (II) loading KTN0239-IgG for 120 seconds; (III) baseline 30 seconds; (IV) association for 120 seconds with ALK; and (V) association for 120 seconds with VH20.

[12] = biological target: T3, cell surface ALK on IMR32 cells (Homo sapiens, UniProt Q9UM73); experiment: FACS binding to IMR32 cells; conditions: 1 μM, positive cell line
T3 construct: endogenous in cells; host or cells: IMR32
Procedure: as §4

[13] = tested on: 293T cells; experiment: Internalization of pHrodo Deep Red labelled VH20, 293T; format: cell-based; conditions: pHrodo Deep Red conjugated VH20, 24 hours, flow cytometer
Procedure: as §3

[14] = tested on: 293T-ALK cells; experiment: Anti-ALK CAR-T cell cytotoxicity (LDH release); format: cell-based; conditions: CAR-T cells comprising the VH, effector:target 1.25:1 to 20:1, 48 hours
Procedure: The cytotoxicity of anti-ALK CAR-T cells against 293T and 293T-ALK cells was also studied. Anti-ALK CAR-T cells (effector cells) were incubated with 293T and 293T-ALK cells at the effector: target ratios of 1.25:1, 2.5:1, 5:1, 10:1 and 20:1 for 48 hours in a 96-well cell culture plate (Corning). The co-cultures of CAR-T cells with 293T cells were used as negative controls. Cytotoxicity was determined by detecting specific lactate dehydrogenase (LDH) released into the medium from the target cells with cytotoxicity LDH detection kit (Promega) according to the manufacturer's instructions. Percent cytotoxicity was calculated with the following formula: Cytotoxicity (%)=(Experimental lysis−Effector spontaneous lysis−Target spontaneous lysis)/(Target maximum lysis−Target spontaneous lysis)×100%. Anti-ALK CAR-T cells were co-cultured with 293T cells as negative controls.

T1 sequence (Q9UM73 19-1038): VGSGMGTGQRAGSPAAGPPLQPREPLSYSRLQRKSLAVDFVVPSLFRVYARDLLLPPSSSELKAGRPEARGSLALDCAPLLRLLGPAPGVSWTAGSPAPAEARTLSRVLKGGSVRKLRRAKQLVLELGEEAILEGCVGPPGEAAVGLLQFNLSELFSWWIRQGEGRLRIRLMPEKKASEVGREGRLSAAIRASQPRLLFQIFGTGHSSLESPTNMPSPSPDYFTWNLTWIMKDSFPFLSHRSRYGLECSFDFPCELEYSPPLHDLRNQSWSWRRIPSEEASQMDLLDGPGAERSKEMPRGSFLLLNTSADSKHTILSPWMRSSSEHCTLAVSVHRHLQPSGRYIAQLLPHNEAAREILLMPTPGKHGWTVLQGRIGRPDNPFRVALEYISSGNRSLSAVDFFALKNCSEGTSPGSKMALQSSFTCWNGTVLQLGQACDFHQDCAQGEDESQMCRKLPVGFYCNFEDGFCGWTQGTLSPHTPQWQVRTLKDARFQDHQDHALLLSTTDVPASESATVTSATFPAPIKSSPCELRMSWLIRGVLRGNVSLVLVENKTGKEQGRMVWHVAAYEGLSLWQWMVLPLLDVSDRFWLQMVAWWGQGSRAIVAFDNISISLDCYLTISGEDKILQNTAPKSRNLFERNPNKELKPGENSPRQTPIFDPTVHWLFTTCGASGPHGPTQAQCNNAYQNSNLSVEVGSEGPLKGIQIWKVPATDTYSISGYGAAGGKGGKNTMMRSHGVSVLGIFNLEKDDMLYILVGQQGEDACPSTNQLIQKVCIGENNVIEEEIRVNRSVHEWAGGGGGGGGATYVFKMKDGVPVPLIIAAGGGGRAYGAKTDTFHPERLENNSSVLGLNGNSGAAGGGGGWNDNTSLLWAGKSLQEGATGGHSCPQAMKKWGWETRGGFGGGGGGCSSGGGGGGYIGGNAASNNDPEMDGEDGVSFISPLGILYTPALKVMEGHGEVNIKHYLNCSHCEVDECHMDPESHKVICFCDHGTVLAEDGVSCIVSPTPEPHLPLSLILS
T2 sequence (Q9UM73 19-1038): as above
cell surface ALK on neuroblastoma cells (IMR32, SY5Y-D3, SY5Y) (human), sequence (Q9UM73 19-1620): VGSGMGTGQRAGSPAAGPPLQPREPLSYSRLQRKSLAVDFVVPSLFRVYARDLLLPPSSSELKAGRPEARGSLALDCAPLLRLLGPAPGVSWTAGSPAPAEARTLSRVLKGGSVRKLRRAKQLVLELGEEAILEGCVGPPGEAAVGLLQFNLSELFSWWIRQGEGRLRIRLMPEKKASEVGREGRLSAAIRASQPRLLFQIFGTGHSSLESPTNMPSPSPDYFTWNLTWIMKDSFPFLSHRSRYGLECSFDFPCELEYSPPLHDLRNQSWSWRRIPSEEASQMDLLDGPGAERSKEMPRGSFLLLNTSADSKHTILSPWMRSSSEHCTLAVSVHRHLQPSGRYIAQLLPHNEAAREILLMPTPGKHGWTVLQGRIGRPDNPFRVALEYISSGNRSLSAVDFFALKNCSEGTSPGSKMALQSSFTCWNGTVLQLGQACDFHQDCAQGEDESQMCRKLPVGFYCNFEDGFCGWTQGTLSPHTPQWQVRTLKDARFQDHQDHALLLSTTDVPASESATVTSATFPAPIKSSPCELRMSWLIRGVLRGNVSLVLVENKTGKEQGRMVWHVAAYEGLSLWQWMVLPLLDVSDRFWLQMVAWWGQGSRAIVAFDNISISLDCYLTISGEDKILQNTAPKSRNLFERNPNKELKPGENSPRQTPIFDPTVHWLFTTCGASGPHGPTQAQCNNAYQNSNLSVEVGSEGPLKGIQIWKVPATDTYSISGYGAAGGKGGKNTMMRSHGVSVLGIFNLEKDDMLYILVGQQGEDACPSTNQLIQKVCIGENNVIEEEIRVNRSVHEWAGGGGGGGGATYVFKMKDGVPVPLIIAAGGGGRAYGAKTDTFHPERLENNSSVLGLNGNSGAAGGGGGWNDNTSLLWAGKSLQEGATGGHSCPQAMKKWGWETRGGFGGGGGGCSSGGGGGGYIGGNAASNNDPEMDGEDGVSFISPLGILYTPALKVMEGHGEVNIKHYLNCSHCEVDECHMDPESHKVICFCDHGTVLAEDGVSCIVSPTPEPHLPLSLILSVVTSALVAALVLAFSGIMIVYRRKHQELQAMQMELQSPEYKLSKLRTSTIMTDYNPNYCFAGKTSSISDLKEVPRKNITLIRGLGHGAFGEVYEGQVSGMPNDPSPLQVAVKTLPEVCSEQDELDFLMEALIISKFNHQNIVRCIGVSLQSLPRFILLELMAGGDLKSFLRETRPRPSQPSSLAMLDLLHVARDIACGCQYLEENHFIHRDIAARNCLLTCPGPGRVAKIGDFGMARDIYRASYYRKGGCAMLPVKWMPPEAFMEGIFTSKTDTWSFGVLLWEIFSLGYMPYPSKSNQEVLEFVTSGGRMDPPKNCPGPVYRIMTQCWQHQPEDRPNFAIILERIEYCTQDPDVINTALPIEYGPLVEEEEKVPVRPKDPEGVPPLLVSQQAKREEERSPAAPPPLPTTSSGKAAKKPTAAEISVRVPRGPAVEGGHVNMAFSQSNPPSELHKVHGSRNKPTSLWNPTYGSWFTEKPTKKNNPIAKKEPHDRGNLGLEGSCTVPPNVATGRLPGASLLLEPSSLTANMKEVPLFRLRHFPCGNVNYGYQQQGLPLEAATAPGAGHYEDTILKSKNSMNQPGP
cell surface ALK on SY5Y-D3 cells, sequence (Q9UM73 19-1038 limits assumed): as the sequence (Q9UM73 19-1038) above
T3 sequence (Q9UM73 19-1620): as the sequence (Q9UM73 19-1620) above
T1 sequence (Q9UM73 733-960 limits assumed): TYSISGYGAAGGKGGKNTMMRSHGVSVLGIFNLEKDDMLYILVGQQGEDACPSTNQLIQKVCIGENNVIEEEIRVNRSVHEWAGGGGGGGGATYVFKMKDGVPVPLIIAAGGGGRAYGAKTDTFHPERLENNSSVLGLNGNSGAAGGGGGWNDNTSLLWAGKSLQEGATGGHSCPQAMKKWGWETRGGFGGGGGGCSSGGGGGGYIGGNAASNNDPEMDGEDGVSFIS

B1: VH20-OKT3-Fc BiTE (bispecific antibody, part only; not given: anti-CD3 scFv, linkers and Fc, not shown: a dimerising Fc or GST)
chain (part 1 of 2), part: EVQLVESGGGVVQPGRSLRLSCAASGFTFSSYAMHWVRQAPGKGLEWVAAIWYDGSNQYYADSVKGRFTISRDDSTNTLYLQMNSLRAEDTALYYCAKSSYYDSSGYYFPYGYWGQGTLVTVSS
chain (part 2 of 2), part: HHHHHH
cytotoxicity IC50 on IMR32 cells (LDH release, activated Pan-T cells, E:T=4:1, 24 hours) [1]: 0.1 nM | cytotoxicity IC50 on SY5Y cells (LDH release, activated Pan-T cells, E:T=4:1, 24 hours) [1]: 0.15 nM | cytotoxicity IC50 (LDH release, activated Pan-T cells, E:T=4:1, 24 hours) [2]: 0.01 nM

B2: VH20 (other)
VH: EVQLVESGGGVVQPGRSLRLSCAASGFTFSSYAMHWVRQAPGKGLEWVAAIWYDGSNQYYADSVKGRFTISRDDSTNTLYLQMNSLRAEDTALYYCAKSSYYDSSGYYFPYGYWGQGTLVTVSS
notes: Single-domain antibody (isolated VH domain) found by phage panning on the ALK G-rich domain antigen; For the internalization assay it was labelled with pHrodo Deep Red dye
non-specific binding with 293T cells [3]: no significant non-specific binding | aggregation by DLS [4]: lower aggregation | oligomeric state by SEC [5]: dimer | internalization into 293T-ALK cells [6]: effectively internalized | binding with 293T-ALK cells [7]: good binding | binding to SK-N-AS cells [8]: not | EC50 [9]: ~0.4 nM | binding cell surface ALK on SY5Y-D3 cells [10]: capable of binding | competition with KTN0239-IgG [11]: not in competition | binding cell surface ALK on IMR32 cells [12]: capable of binding | non-specific internalization in 293T cells [13]: no non-specific internalization was detected

B3: VH78 (other)
VH: EVQLVESGGGVVQPGRSLRLSCAASGFTFSSYAMHWVRQAPGKGLEWMGIIYPGDSDTRYSPSFQGHVTISRDDSTNTLYLQMNSLRAEDTATYYCARERGWQDAFDIWGQGTLVTVSS
notes: Single-domain antibody (isolated VH domain) found with the ALK G-T domain antigen
non-specific binding with 293T cells [3]: no significant non-specific binding | binding with 293T-ALK cells [7]: good binding | EC50 [9]: ~1.32 nM | cytotoxicity of anti-ALK CAR-T cells [14]: greater cytotoxicity
